# Source: patent publication US20230279130A1
# Columns and labels:
# [1] = molecular target: full length human CCR8 (hCCR8) (human) (UniProt P51685); assay: flow cytometry, CD4+Foxp3+ gated cells of resting human PBMC, anti-human IgG Fc against Foxp3
# [2] = molecular target: full length human CCR8 (hCCR8) (human) (UniProt P51685); assay: flow cytometry, CD4+Foxp3+ gated cells of human PBMC stimulated with IL-2 (200 U/ml) for 2 days, anti-human IgG Fc against Foxp3
# [3] = molecular target: full length human CCR8 (hCCR8) (human) (UniProt P51685); assay: flow cytometry, CD4+Foxp3+ gated cells of OKT-3 stimulated human PBMC, anti-human IgG APC against Foxp3 PE
Substance,percent of CD4+Foxp3+ cells in the gate 'Foxp3 ahigG Subset' [1] [%],percent of CD4+Foxp3+ cells in the gate 'Foxp3 ahigG Subset' [2] [%],percent of CD4+Foxp3+ cells stained (upper right quadrant) [3] [%]
Anti RSV (antibody),0.11,0.36,
anti-DNP (dinitrophenyl) control antibody,,,6.23
